Experimental data published in patent publication US20160303258A1.
Where no end group is shown, it is not given here. The star is where a group is joined. DOTA = O=C(O)CN1CCN(CC(=O)O)CCN(CC(=O)*)CCN(CC(=O)O)CC1; Ahx = NCCCCCC(=O)O

Assays:
[1] = target: guanylyl cyclase C (GCC) (human), P25092; experiment: in vivo competitive binding study with [68Ga]MLN6907 in HEK-293 GCC Clone 2 tumor-bearing mice, model-derived
[2] = target: guanylyl cyclase C (GCC) (human), P25092; experiment: in vitro competitive binding assay with HEK-293 GCC clone 2 cells (Indium-111 used as surrogate label; FIG. 13)
[3] = target: guanylyl cyclase C (GCC) (human), P25092; experiment: competitive binding against [111In]MLN6907 on HEK-293 GCC Clone 2 cells; DSP without chelation reaction conditions
[4] = target: guanylyl cyclase C (GCC) (human), P25092; experiment: in vivo competitive binding against [68Ga]MLN6907 DP in tumor models with different GCC expression levels; semi-mechanistic model
[5] = target: guanylyl cyclase C (GCC) (human), P25092; experiment: competitive binding against [111In]MLN6907 on HEK-293 GCC Clone 2 cells; DSP treated with chelation reaction conditions (acetone:HCl, about 100 C, 10 min)

Chain of guanylyl cyclase C (GCC) (human), P25092 (P25092 24-1073 limits assumed): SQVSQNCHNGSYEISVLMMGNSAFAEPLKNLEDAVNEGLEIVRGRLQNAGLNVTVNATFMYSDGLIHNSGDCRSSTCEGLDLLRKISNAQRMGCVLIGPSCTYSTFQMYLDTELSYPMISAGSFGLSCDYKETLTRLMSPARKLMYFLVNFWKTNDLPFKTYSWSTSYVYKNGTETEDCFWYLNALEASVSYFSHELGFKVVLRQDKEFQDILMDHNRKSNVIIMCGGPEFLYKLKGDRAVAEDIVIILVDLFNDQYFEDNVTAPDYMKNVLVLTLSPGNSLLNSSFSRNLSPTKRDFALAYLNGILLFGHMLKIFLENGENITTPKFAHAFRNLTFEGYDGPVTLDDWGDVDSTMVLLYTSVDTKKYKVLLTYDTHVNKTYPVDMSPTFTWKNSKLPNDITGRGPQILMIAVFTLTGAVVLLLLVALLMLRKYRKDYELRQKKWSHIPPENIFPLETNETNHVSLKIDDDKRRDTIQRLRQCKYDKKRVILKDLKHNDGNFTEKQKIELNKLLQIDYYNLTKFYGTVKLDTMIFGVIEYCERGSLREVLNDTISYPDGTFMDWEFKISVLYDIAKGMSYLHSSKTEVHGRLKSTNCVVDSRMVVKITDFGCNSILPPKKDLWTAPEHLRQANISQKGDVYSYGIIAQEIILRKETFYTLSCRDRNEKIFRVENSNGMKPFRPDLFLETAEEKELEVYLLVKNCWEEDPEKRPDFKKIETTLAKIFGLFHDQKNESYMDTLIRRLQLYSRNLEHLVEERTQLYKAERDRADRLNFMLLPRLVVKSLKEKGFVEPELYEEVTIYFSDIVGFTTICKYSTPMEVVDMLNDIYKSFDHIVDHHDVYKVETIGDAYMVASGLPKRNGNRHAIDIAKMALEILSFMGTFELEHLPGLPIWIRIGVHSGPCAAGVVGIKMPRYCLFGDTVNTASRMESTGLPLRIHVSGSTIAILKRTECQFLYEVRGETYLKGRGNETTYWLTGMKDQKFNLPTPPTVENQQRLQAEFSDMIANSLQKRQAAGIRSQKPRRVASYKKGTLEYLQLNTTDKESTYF

Binder	Bmax (antigen surface density, HEK-293 GCC Clone 2) [1]	Kd [2] [nM]	IC50 [3] [nM]	EC50 [4] [nM]	IC50 [5] [nM]
{DOTA-Ahx}-CCELCCNPACAGCY (ends and bridges not checked; also: 68Ga complexed by DOTA, cyclised (places not given here)) [[68Ga]MLN6907 DP (drug product), Formula (VIa)]	14000	–	–	–	–
CCELCCNPACAGCY (modifications not checked) [MLN6907 DSP (drug substance precursor), Formula (VI): DOTA-Ahx-STp(5-18), not radiolabeled]	–	3.2	4.59	97.1 to 5660	4.75
